The results in this text go back to patent publication US7943141B2, “Activated polyoxazolines and compositions comprising the same” (Serina Therapeutics, Inc., priority 2007, dated 2011).

One assay deals with T1, catalase (Bos taurus, UniProt P00432).
T1 sequence (P00432 2-527 limits assumed): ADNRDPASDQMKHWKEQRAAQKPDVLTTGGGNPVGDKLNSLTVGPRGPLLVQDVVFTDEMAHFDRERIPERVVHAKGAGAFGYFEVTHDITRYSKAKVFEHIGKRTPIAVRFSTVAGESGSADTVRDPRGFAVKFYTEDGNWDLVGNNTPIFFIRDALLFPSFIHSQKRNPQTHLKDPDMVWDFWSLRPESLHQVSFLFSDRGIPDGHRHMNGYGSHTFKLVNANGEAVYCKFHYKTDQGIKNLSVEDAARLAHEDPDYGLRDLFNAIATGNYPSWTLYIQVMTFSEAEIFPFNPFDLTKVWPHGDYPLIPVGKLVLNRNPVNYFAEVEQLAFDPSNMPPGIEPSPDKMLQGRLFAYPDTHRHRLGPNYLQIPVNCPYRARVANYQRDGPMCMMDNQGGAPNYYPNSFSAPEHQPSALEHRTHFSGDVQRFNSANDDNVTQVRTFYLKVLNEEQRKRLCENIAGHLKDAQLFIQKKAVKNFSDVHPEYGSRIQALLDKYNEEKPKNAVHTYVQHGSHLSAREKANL
Kind of assay: Catalase enzymatic activity (method of Beers and Sizer). Type of assay: biochemical. Particulars: native enzyme. An excerpt:
(§1) To evaluate the different influence on enzyme properties as a function of polymerization with POZ derivatives of the present disclosure and corresponding PEG polymers known in the art, three different enzymes, ribonuclease A, uricase and catalase, were modified with M-PEOZ-O—CH2—CO2—NHS (6 kDa) and PEG-O—CH2—CO2—NHS (5.5 kDa). To facilitate the comparison, each enzyme was modified under similar conditions regarding polymer to enzyme ratios, buffer, pH and reaction temperature.
The conditions of enzyme modification with the POZ and PEG polymers described above were 0.2 M, pH 8.5 in borate buffer. The amount of POZ and PEG polymer used for modification was calculated on the basis of calculated total available amino groups in each enzyme. […]
To the three enzymes solutions (2.5 mg/ml) M-POZ-O—CH2—CO2—NHS or PEG-O—CH2—CO2—NHS solid were added at room temperature at a molar ratio of polymer to protein amino groups of 2/1 and 1/1 respectively. Protein concentration of the native forms of ribonuclease, uricase and catalase was evaluated spectrophotometrically using molar extinction coefficients of 9.45×10^3, 13×10^3 and 1.67×10^5 at 280 nm, respectively. […]
The degree of protein modification was evaluated colorimetrically by TNBS assay and expressed as percentage of conjugate amino groups to the total ones present on the protein. […]

The target in a further assay is T2, ribonuclease A (Bos taurus, UniProt P61823).
T2 sequence (P61823 27-150): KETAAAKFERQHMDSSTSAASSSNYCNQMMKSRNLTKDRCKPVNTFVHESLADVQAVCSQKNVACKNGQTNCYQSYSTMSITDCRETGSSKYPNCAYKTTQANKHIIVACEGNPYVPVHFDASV
The assay can be described thus: Ribonuclease enzymatic activity (method of Crook et al.). Type of assay: biochemical.
Source text: as §1
The conditions of enzyme modification with the POZ and PEG polymers described above were 0.2 M, pH 8.5 in borate buffer. The amount of POZ and PEG polymer used for modification was calculated on the basis of calculated total available amino groups in each enzyme. For example, ribonuclease A has a molecular weight of 13.7 kDa and 11 available amino groups; uricase has a molecular weight of 130 kDa and 100 available amino groups; and catalase has a molecular weight of 240 kDa and 112 available amino groups.
To the three enzymes solutions (2.5 mg/ml) M-POZ-O—CH2—CO2—NHS or PEG-O—CH2—CO2—NHS solid were added at room temperature at a molar ratio of polymer to protein amino groups of 2/1 and 1/1 respectively. Protein concentration of the native forms of ribonuclease, uricase and catalase was evaluated spectrophotometrically using molar extinction coefficients of 9.45×10^3, 13×10^3 and 1.67×10^5 at 280 nm, respectively. After 30 minutes, polymer-enzyme conjugates were purified from unreacted polymer and n-hydroxysuccinimide by gel filtration chromatography Sephadex G-75 column, with 0.1M phosphate buffer, pH 7.4 as eluent.
The degree of protein modification was evaluated colorimetrically by TNBS assay and expressed as percentage of conjugate amino groups to the total ones present on the protein. Enzymatic activity of native and modified enzymes was evaluated as follows: ribonuclease activity was assayed by the method of Crook et al. (Biochem J. 1960 February; 74:234-8); uricase activity was determined by the method of Mahler (Anal Biochem. 1970 November; 38(1):65-84); and catalase was assayed according to a method reported by Beers and Sizer (J. Biol. Chem. 1952 March; 195(1):133-40).

Consider Catalase, for which the “% activity” value on catalase came out at 100%.

B1: RNAse: native ribonuclease A (protein, UniProt P61823 27-150, looked up)
Ribonuclease pancreatic: T2 sequence (P61823 27-150)
Turning to B1, in the assay with ribonuclease A (native enzyme), the “% activity” value stood at 100%.

B2: PEG/RNAse: ribonuclease A modified with PEG-O—CH2—CO2—NHS (5.5 kDa) (conjugate, UniProt P61823 27-150, looked up)
Ribonuclease pancreatic: T2 sequence (P61823 27-150)
modifications: PEG 5.5 kDa conjugate
B2: the “% activity” value with ribonuclease A (NH2:polymer molar ratio 1:1) is 15%; in the assay with ribonuclease A (NH2:polymer molar ratio 2:1), 10%.

B3: POZ/RNAse: ribonuclease A modified with M-PEOZ-O—CH2—CO2—NHS (6 kDa) (conjugate, UniProt P61823 27-150, looked up)
Ribonuclease pancreatic: T2 sequence (P61823 27-150)
modifications: M-PEOZ 6 kDa conjugate
For B3, the entries for the “% activity” value in the assay with ribonuclease A (NH2:polymer molar ratio 1:1) and in the assay with ribonuclease A (NH2:polymer molar ratio 2:1) were 50% and 30%, respectively.
